Reference: PMC10838266 (Nature Communications, 2024)
Values belong to the molecule of their own block, whether it stands above or below them.

B2: Phosphoglycerate kinase 1, wild-type, His-tagged recombinant (enzyme, UniProt P00558 1-417, looked up)
chain: MSLSNKLTLDKLDVKGKRVVMRVDFNVPMKNNQITNNQRIKAAVPSIKFCLDNGAKSVVLMSHLGRPDGVPMPDKYSLEPVAVELKSLLGKDVLFLKDCVGPEVEKACANPAAGSVILLENLRFHVEEEGKGKDASGNKVKAEPAKIEAFRASLSKLGDVYVNDAFGTAHRAHSSMVGVNLPQKAGGFLMKKELNYFAKALESPERPFLAILGGAKVADKIQLINNMLDKVNEMIIGGGMAFTFLKVLNNMEIGTSLFDEEGAKIVKDLMSKAEKNGVKITLPVDFVTADKFDENAKTGQATVASGIPAGWMGLDCGPESSKKYAEAVTRAKQIVWNGPVGVFEWEAFARGTKALMDEVVKATSRGCITIIGGGDTATCCAKWNTEDKVSHVSTGGGASLELLEGKVLPGVDALSNI
notes: Phosphoglycerate kinase 1 (PGK1), wild-type, cloned into the BamHI and XhoI sites of pET32a; also called PGK1; His-tagged PGK1

What was measured:
Hrs = Hrs (UniProt O14964); assay: co-immunoprecipitation from cell lysate; details: reference: wild type; sites S203
[1] = target: B2; assay: pull-down; competition with purified components: increasing level of an EGFR peptide (dileucine signal or mutated) added to the pull-down of PGK1 by GST-EGFR; details: both partners purified
[2] = target: T1, GST fused to the cytoplasmic domain of the epidermal growth factor receptor (UniProt P00533 669-1210); assay: pull-down; GST-fusion proteins on glutathione beads incubated with soluble proteins (100 nM), 4 °C, 1 h, PBS with 0.05% Triton X-100 and protease inhibitors; two washes; SDS-PAGE with Coomassie staining or western blot; details: both partners purified
T1 construct: Epidermal growth factor receptor (EGFR), cytoplasmic domain appended to the carboxy terminus of GST in pGEX-4T-1; also called GST-EGFR cytoplasmic domain; source: E. coli BL21, purified on glutathione-Sepharose 4B beads; not shown: GST, N-terminal, kept

binding against the reference (Hrs): weaker
Molecule: PGK1 (from UniProt P00558) S203A

binding result [1]: binds
B1: EGFR peptide, wild-type (contains the dileucine sorting signal) (peptide)
peptide: PNQALLRILKETE
notes: Stretch of the juxta-membrane region of the epidermal growth factor receptor (EGFR) with the dileucine sorting signal; also called peptide that contains the relevant dileucine motif; source: synthetic peptide (core facility)

Molecule: B2
binding result [2]: binds
